These results are taken from patent US20220096655A1, “PLASMA POLYMER NANOPARTICLES CARRYING AGENTS” (THE HEART RESEARCH INSTITUTE LTD, priority 2019, published 2022).

“And” between values parts separate entries of the source, which are not always exact repeats. Equal values may be shown once.

The subject of data set [1] is rat carotid model of vessel injury. Description: Rat carotid injury and nanoP3 delivery model (neointima, endothelium, M2 macrophages). It counts as in vivo. The note with it: for repair of the damaged endothelium (immunostaining, von Willebrand factor): 14 days after injury; for vessel re-endothelialisation / healing (von Willebrand factor staining): 200 nm NP3, FIG. 8; for vascular occlusion (neointima formation percentage of cross-sectional lumen area): denuded injury roughly 60%. On the procedure: (§1) Study approval was obtained from the Sydney Local Health District Animal Welfare Committee (protocol number 2017/006). Experiments were conducted in accordance with the Australian Code of Practice for the Care and Use of Animals for Scientific Purpose. Rats (Sprague Dawley, male, 7 weeks) were purchased from Laboratory Animal Service (NSW, Australia). Rats were given a single intramuscular injection of ketamine (75 mg/kg) and medetomidine (0.5 mg/kg) to induce anaesthesia. The common carotid artery was isolated and double ligations were spaced roughly 1 cm apart. A small incision at the distal end was made, through which microintraocular forceps (World Precision Instruments, USA) were inserted, expanded to their full width and rotated 360 degrees to injured the entire luminal surface area of the vessel. This was repeated 5 times before withdrawing the forceps, and inserting a 22G catheter into the same incision. Through the catheter, IL-4 or IL-10 bound nanoP3 solutions were injected at a concentration of 2×10^8 nanoP3 in a total volume of roughly 80 μl of RPMI media. The nanoP3 solutions were allowed to incubate for 2 minutes and then withdrawn completely from the vessel. The incision was sutured closed using a 9-0 nylon suture, and both ligations were undone to re-establish blood flow. The isolated vessel segments were then explanted 14 days later for pathological evaluation.
After 14 days in vivo, vessel explants were fixed in 4% PFA overnight and subjected to ethanol dehydrations prior to paraffin embedding. Embedded vessel segments were then sectioned in 5 μm thick slices in the longitudinal direction. M2 macrophage and luminal endothelium staining was conducted using anti-CD206 (Abcam, USA) and anti-VonWillebrand Factor (Sigma, USA) antibodies. Fluorescent imaging was conducted by using Alexa-fluor 594 secondary antibodies. Staining of neointima formation was conducted using hematoxylin & eosin (H&E) staining. Normalised hyperplasia was calculated as the total area of hyperplasia divided the area of the original vessel lumen.
Using a rat carotid model of vessel injury, the efficacy of NP3+IL-10, NP3+Sirolimus or NP3+Sulindac to treat cardiovascular pathology was determined in vivo. Carrier -free recombinant rat IL-10 (1.34 μg/10^9 nanoP3; R&D systems, USA), Sirolimus (2.50 μg/10^9 nanoP3; rapamycin, Sigma-Merck, USA), Sulindac (3.05 μg/10^9nanoP3; Sigma-Merck, USA), or a Cy7 fluorescent tag (5.03 μg/10^9 nanoP3; CF750 Antibody Label, Sigma-Merck, USA) were diluted in sterile water and conjugated to 2×10^9 nanoP3.
The rats were subjected to vessel injury as described in Example 3 except that through the catheter, IL-10, Sirolimus or Sulindac bound nanoP3 solutions were injected at a concentration of 2×10^8 nanoP3 (IL-10, 0.268 μg; Sirolimus, 0.5 μg; Sulindac 0.61 μg; Cy7, 1.01 μg), in a total volume of roughly 80 μl of RPMI media.

A short description of data set [2]: Interleukin surface binding to nanoP3 (fluorescence of Cy5 label in leftover washes). The note with it: ultra-pure water pH 6.5, room temperature; for maximum binding efficiency of nanoP3 to interleukin in solution: Cy5-tagged interleukin; for loading capacity, further increased loading: at lower binding efficiency. Type of data set: physicochemical. On the procedure:
Carrier free recombinant rat IL-4 and IL-10 (R&D systems, USA) were dissolved in phosphate buffered saline (PBS) at a stock concentration of 100 ng/μl. To establish binding kinetics, each interleukin was tagged with a Lightning-link Cy5 antibody label (Novus Biologicals, USA). For every 1×10^9 nanoP3 (200 nm diameter) in ultrapure water (Thermofisher, USA), either 1.42 μg of IL-4 or 1.32 μg of IL-10 was added. Additional water was added to reach a total reaction volume of 1 ml and left to incubate for a 1 h at room temperature. Binding kinetics were performed on a Clariostar monochromator microplate reader (BMG Labtech, Germany) using the leftover washes following 1 h incubations.
The binding efficiency of nanoP3 to IL-4 in solution was maximum at 99%, corresponding to a loading capacity of 0.5±0.01 μg/10^9 particles. […] The maximum binding efficiency of nanoP3 to IL-10 was 99.9%, representing a total mass loading capacity of 0.5±0.02 μg/10^9 particles. Further loading of IL-10 onto nanoP3 was observed up to 0.80±0.02 μg/10^9 particles corresponding to a binding efficiency of 40%. All experiments were performed in ultra-pure water (pH=6.5) at room temperature. The incubation time was 30 minutes.

Data set [3] deals with Raw 246.7 mouse macrophage cells. Description: M2 macrophage polarisation in vitro (SEM, confocal arginase-1 staining). Type of data set: cell-based. The note with it: 1×10^5 nanoP3/well, 24 hours; for expression of arginase-1 (ARG-1), confocal immunostaining: vs control and NP3 only; for M2 activation of macrophages (SEM spreading and surface roughness): vs untreated and NP3 only. On the procedure:
The inventors sought to investigate the effect of NP3+IL-4 on macrophage polarisation in vitro. Raw 246.7 mouse macrophage cells (ATCC, USA) were cultured at 5×10^3 cells/well in a 96 well plate. IL-4 bound nanoP3 was added into macrophage cultures at a concentration of 1×10^5 nanoP3/well. After 24 hours, macrophages were fixed in 4% paraformaldehyde prior to scanning electron microscopy (SEM) and confocal imaging. Confocal staining was performed using an Actin cytoskeletal stain (Abcam, USA) and an anti-arginase-1 antibody (Abcam, USA).
Raw 246.7 mouse macrophage cells (ATCC, USA) were cultured at 5×10^3 cells/well in a 96 well plate. IL-10 (1.34 μg/10^9 nanoP3) and Sulindac (3.05μg/10^9nanoP3) were bound to nanoP3 as described in Example 4.
NP3+IL-10 or NP3+Sulindac was added into macrophage cultures at a concentration of 1 x 10^5 nanoP3/well. After 24 hours, macrophages were fixed in 4% paraformaldehyde prior to scanning electron microscopy (SEM) and confocal imaging. Confocal staining was performed using an Actin cytoskeletal stain (Abcam, USA) and an anti-arginase-1 antibody (Abcam, USA).

The subject of data set [4] is rabbit model of iliac arterial injury. Description: Rabbit iliac injury and nanoP3 delivery model. Type of data set: in vivo. The following applies: 200 nm NP3, over seven days. On the procedure: Study approval was obtained from the University of Sydney Animal Ethics Committee (AEC) protocol 2019-1653. Experiments were conducted in accordance with the Australian Code of Practice for the Care and Use of Animals for Scientific Purpose. An incision (˜1cm length) was made in the middle of the inguinal skin and the right femoral artery exposed after the blunt dissection of the muscle layers. The artery was ligated on the distal end and above the ligation, a small incision made to allow a 5F sheath (Abbott, TREK Coronary Dilatation Catheter, 3.25 mm) to be inserted. The sheath was held in place with sutures (3-0, silk). A 0.014 inch guide wire was inserted through the sheath, retrograde into the abdominal aorta. A 3.25 mm angioplasty balloon catheter was then inserted over the guide wire and advanced into the aorta. The location of NP3 delivery and the surrounding vasculature was determined by intravenous injection of contrast fluid ISOVUE 370 or OMNIPAQUE (75.5 g/100 ml), 25%-50% (v/v) contrast/saline prior to angiography.
Denudation of the iliac artery was performed by inflating the balloon at the bifurcation of the abdominal aorta to 3.1 mm diameter and withdrawn to the femoral artery slowly, 3 times (1 min per denudation). Through the main incision, the same balloon was re-inserted into the injured iliac to the bifurcation and inflated to 6-8 atm to occlude proximal blood flow. Immediately after blood flow has been occluded, a IL-10 nanoP3 solution (3×10^8 total 2 ml) was delivered through the sheath, inflating the artery, and allowed to incubate for 2 minutes before aspirating remaining solution back through the sheath. The sheath was removed, the femoral artery permanently ligated by 3-0 silk suture, followed by removal of the sheath. The exposed area was closed by 3-0 silk suture with individual stiches and double layer sutures.

Data set [5] in a line: Tracking of IL-4 retention in the isolated vessel (Cy5 tag), rat carotid injury model. Type of data set: in vivo. The following applies: for IL-4 retention in the vessel after restoration of blood flow: 2 minutes incubation in isolated carotid. Here is the method: A) Procedural workflow of vessel injury: 1. Microintraocular forceps are inserted into ligated/isolated carotid rat segments. 2. Forceps are expanded and rotated 360° to mimic balloon injury overexpansion injury/denudation. 3. Forceps are removed, and through the same incision a small gauge catheter is inserted. 4. NP3+IL-4 solutions are delivered through the catheter and are allowed to incubate in the isolated vessel for 2 minutes. 5. The incision is sutured, and blood flow is restored.
as §1

B1: IL-10: carrier free recombinant rat IL-10 (R&D systems), anti-inflammatory cytokine (protein, UniProt P29456 19-178, looked up)
Interleukin-10: SKGHSIRGDNNCTHFPVSQTHMLRELRAAFSQVKTFFQKKDQLDNILLTDSLLQDFKGYLGCQALSEMIKFYLVEVMPQAENHGPEIKEHLNSLGEKLKTLWIQLRRCHRFLPCENKSKAVEQVKNDFNKLQDKGVYKAMNEFDIFINCIEAYVTLKMKN
Consider B1, for which the “repair of the damaged endothelium (immunostaining, von Willebrand factor)” value (“repair of the damaged endothelium” below) in data set [1] is recorded as “absent”. Further, in data set [1] (two weeks), the “effect on vascular occlusion” value is “no significant effects”. Further, in data set [2], the “binding efficiency at further increased loading” value was determined as 40%; the “loading capacity at maximum binding efficiency” value amounted to 0.5±0.02 μg/10^9 particles; the “maximum binding efficiency of nanoP3 to interleukin in solution” value is 99.9% and 100%; the “loading capacity, further increased loading” value is on record as 0.80±0.02 μg/10^9 particles.

B2: NP3+IL-10: recombinant rat IL-10 conjugated to 200 nm plasma polymer nanoparticles (nanoP3) (conjugate, UniProt P29456 19-178, looked up)
Interleukin-10: B1 Interleukin-10
modifications: conjugated to 200 nm plasma polymer nanoparticles
With B2, in data set [3], the “expression of arginase-1 (ARG-1), confocal immunostaining” value is given as “significantly upregulated”; the “M2 activation of macrophages (SEM spreading and surface roughness)” value is “causes M2 activation”. Besides, in data set [1], the “vessel re-endothelialisation / healing (von Willebrand factor staining)” value is recorded as “stimulate healing” and the “repair of the damaged endothelium” value is recorded as “restore full endothelium integrity”. The “vessel re-endothelialisation / healing (von Willebrand factor staining)” value in data set [1] (listed as NP3 delivered IL-10) is reported as “stimulates vessel healing”. For the same molecule, the “vessel inflammation/macrophage polarisation (CD206 co-staining with CD68)” value in data set [1] (200 nm NP3, FIG. 9) was “promoting M2 macrophage polarisation”. For the same molecule, the “neointimal hyperplasia (H&E staining)” value in data set [1] (200 nm NP3, compared to freely delivered agents, FIG. 7) is recorded as “inhibition of neointimal hyperplasia”. Also, in data set [1] (14 days, compared to denuded, NP3+IL-4 and free IL-10), the “presence of M2 macrophages in treated carotid segments (immunostaining, CD206)” value is on record as “significant increase”. Moreover, the “vascular occlusion (neointima formation percentage of cross-sectional lumen area)” value in data set [1] (two weeks) is roughly 20%. Moreover, the “incidence of thrombosis (CD31 staining)” value in data set [4] is reported as “significantly reduced”. Further, in data set [4] (vs untreated controls), the “neointimal hyperplasia / occlusion (H&E staining)” value (“neointimal hyperplasia / occlusion” for short) is “reduced hyperplasia” and the “vessel inflammation, infiltration of pro-inflammatory macrophages (CD68 staining)” value was “reduces the infiltration of pro-inflammatory macrophages”. The “neointimal hyperplasia / occlusion” value in data set [4] (vs untreated controls, listed as IL-10+NP3) is listed as “reduced hyperplasia”. Also, the “neointimal hyperplasia / occlusion” value in data set [4] (vs untreated controls, listed as NP3+IL10) is listed as “reduced occlusion”.

B3: IL-4: carrier free recombinant rat IL-4 (R&D systems), anti-inflammatory cytokine (protein, UniProt P20096 25-147, looked up)
Interleukin-4: CNDSPLREIINTLNQVTEKGTPCTEMFVPDVLTATRNTTENELICRASRVLRKFYFPRDVPPCLKNKSGVLGELRKLCRGVSGLNSLRSCTVNESTLTTLKDFLESLKSILRGKYLQSCTSMS
Take B3: the “IL-4 retention in the vessel after restoration of blood flow” value in data set [5] is listed as “immediately washed away”. Also, in data set [2], the “binding efficiency at further increased loading” value is given as 53.1%; the “loading capacity at maximum binding efficiency” value came to 0.5±0.01 μg/10^9 particles; the “maximum binding efficiency of nanoP3 to interleukin in solution” value is 99% and 100%; the “loading capacity, further increased loading” value is 1.1±0.02 μg/10^9 particles.

B4: NP3+IL-4: recombinant rat IL-4 conjugated to plasma polymer nanoparticles (nanoP3, 200 nm) (conjugate, UniProt P20096 25-147, looked up)
Interleukin-4: B3 Interleukin-4
modifications: conjugated to 200 nm plasma polymer nanoparticles
Consider B4, for which, in data set [3], the “expression of arginase-1 (ARG-1), confocal immunostaining” value is recorded as “significantly upregulated”; the “M2 activation of macrophages (SEM spreading and surface roughness)” value was “increases spreading (top row) and surface roughness”. Further, the “M2 activation of macrophages (SEM spreading and surface roughness)” value in data set [3] (listed as nanoP3-IL4) was “causes M2 activation”. Also, the “repair of the damaged endothelium” value in data set [1] is “restore full endothelium integrity”. The “vascular occlusion (neointima formation percentage of cross-sectional lumen area)” value in data set [1] (two weeks) is recorded as “approximately 35%”. Further, in data set [5], the “persistence of IL-4 at substantial levels in the vessel” value is recorded as no less than 5 days and the “IL-4 retention in the vessel after restoration of blood flow” value is recorded as “significantly retained”.
